# Measurements: publication PMC8265659
# How the values were obtained:
# [1] = biological target: T1, PorX-C-His6 (Porphyromonas gingivalis (33277?)) (UniProt B2RJJ3); experiment: EMSA; conditions: EMSA: 10 mM Tris-HCl pH 7.5, 1 mM EDTA, 5 mM DTT, 10 mM NaCl, 1 mM MgCl2, 5% glycerol, room temperature, 30 min
# T1 sequence: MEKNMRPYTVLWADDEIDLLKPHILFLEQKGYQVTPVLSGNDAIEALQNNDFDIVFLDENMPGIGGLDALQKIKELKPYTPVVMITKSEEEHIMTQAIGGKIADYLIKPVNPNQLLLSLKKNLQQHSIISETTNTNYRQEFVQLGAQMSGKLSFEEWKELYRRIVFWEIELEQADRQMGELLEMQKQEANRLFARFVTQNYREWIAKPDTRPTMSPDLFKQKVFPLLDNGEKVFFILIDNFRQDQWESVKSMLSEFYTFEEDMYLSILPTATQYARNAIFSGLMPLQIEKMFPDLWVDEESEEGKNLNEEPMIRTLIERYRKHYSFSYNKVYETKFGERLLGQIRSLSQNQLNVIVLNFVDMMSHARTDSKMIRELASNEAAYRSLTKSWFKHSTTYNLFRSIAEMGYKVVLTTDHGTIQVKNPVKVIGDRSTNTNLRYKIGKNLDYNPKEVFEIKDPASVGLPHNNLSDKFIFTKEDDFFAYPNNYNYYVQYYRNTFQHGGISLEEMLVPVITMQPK
# [2] = biological target: T1, PorX-C-His6 (Porphyromonas gingivalis (33277?)); experiment: DNase I footprinting; conditions: EMSA: 10 mM Tris-HCl pH 7.5, 1 mM EDTA, 5 mM DTT, 10 mM NaCl, 1 mM MgCl2, 5% glycerol, room temperature, 30 min
sequence,measurement,setting,value
CCGAGTACGTTTACCCCGGCCCGATACAGTTCTTCGGCCCCGAACATGTATGCGATAGCCCCACGATGACACTCCGCTTGGAAAAGAACGATCGCTGACTCTTCCGCTGCATTAGTCGGGTTGATAAGCAGTTGCTTCTGTTTGTTTTGTCGAAAAAAATGTTTTTCTTTGCAATAAGTCTCATTTAAAAGAATCGCCTATCGACGCATATCTACCTTCTGAACAATAAATAAAGAGGATTCTCCTATGAGCAGTTTCCACAAGCTGACTGATGA (double strand) [T1 sigP promoter fragment (275 bp)],binding,[1],binds
same,binding,[2],binds
